Measurements as given in article PMC9691366, “Modulating the pharmacokinetic profile of Actinium-225-labeled macropa-derived radioconjugates by dual targeting of PSMA and albumin” (Theranostics, 2022).

Assays:
[1] = Ex vivo biodistribution in LNCaP tumor-bearing SCID mice; conditions: mouse, in vivo, 50 kBq per mouse; for tissue uptake at 1 h: 1 h p.i.; for tissue uptake at 4 h: 4 h p.i.; for tissue uptake at 24 h: 24 h p.i.; for tissue uptake at 48 h: 48 h p.i.; for tissue uptake at 72 h: 72 h p.i.; for tissue uptake at 120 h: 120 h p.i.
Text: (§1) The biodistribution experiments with [^225Ac]Ac-mcp-M-alb-PSMA and [^225Ac]Ac-mcp-D-alb-PSMA were accomplished using LNCaP tumor-bearing mice. The SCID male mice (ENVIGO, Indianapolis, IN, USA) 8 weeks old were subcutaneously xenografted into the right flank with 10∙10^6 LNCaP cells (ATCC, Manassas, VA, USA) mixed with Matrigel Matrix (Corning Inc., Corning, NY, USA) at a 1:1 ratio. The tumor growth was periodically monitored by caliper-based measurements. When the tumor volume reached 200-300 mm^3 (i.e., approx. 6 weeks after the xenografting of the cells), the mice were enrolled in the biodistribution study. All experimental animals were housed in a specific-pathogen-free animal facility and all experiments with animals were performed in accordance with appropriate legal norms (Czech Law No. 246/1992) and with the approval of the Ministry of Education, Youth and Sports (MSMT-35035/2019-3) and approval of the Ethical committee of Faculty of Medicine and Dentistry, Palacky University in Olomouc. The number of animals was reduced as much as possible (n = 3-4 per group and time point) for in vivo experiments in order to strictly follow 3Rs principle.
(§2) For the purpose of biodistribution studies, the ^225Ac-radioconjugates were diluted with saline. The diluted ^225Ac-radioconjugates were applied retro-orbitally (r.o.) to the experimental animals at a dose of 50 kBq per mouse corresponding to 10 pmol of the PSMA-inhibitor. The radioactivity application was carried out under 2% isoflurane anesthesia (FORANE, Abbott Laboratories, Abbott Park, IL, USA) to minimize animal suffering and to prevent animal motion. The mice were sacrificed by cervical dislocation 1, 4, 24, 48, 72, and 120 h (plus 168 h for [^225Ac]Ac-mcp-D-alb-PSMA) post-injection and organs of interest (blood, spleen, pancreas, stomach, intestine, kidneys, liver, heart, lungs, muscle, bone, and tumor) were collected. The organs were weighed, and their radioactivity was counted on an automatic gamma counter. The uptake of the ^225Ac-radioconjugates was expressed as a percentage of injected dose per gram of the corresponding organ (%ID/g). The area under the curve (AUC) was determined for both tested PSMA ligands from non-decay-corrected data obtained from the ex vivo biodistribution data of the tumors, kidneys, and blood.

[2] = tested on: LNCaP tumor-bearing SCID mice; experiment: as above
Text: as §1, §2

[3] = non-decay corrected biodistribution data, mean ± SD

Work on `O=C(O)CC[C@H](NC(=O)N[C@@H](CCCCNC(=O)[C@H](Cc1ccc2ccccc2c1)NC(=O)[C@H]1CC[C@H](CNC(=O)[C@H](CCCCn2cc(COc3cc(CN4CCOCCOCCN(Cc5cccc(C(=O)O)n5)CCOCCOCC4)nc(C(=O)O)c3)nn2)NC(=O)[C@H](CCC(=O)O)NC(=O)CCCc2ccc(I)cc2)CC1)C(=O)O)C(=O)O` [[^225Ac]Ac-mcp-M-alb-PSMA, metal not drawn] yielded a tissue to tissue ratio ([1]; male, SCID, total radioactivity) of 1490, a tissue uptake at 1 h ([1]; blood uptake (AV)) of 6.47 %ID/g and a tissue uptake at 4 h ([1]; blood uptake (AV)) of 4.8 %ID/g. The tissue uptake at 24 h ([1]; blood uptake (AV)) was 0.54 %ID/g, the tissue uptake at 48 h ([1]; blood uptake (AV)) was 0.08 %ID/g and the tissue uptake at 72 h ([1]; blood uptake (AV)) was 0.03 %ID/g. The tissue uptake at 120 h ([1]; blood uptake (AV)) was 0.03 %ID/g, the tissue uptake at 1 h ([1]; femur uptake (AV)) was 0.61 %ID/g and the tissue uptake at 4 h ([1]; femur uptake (AV)) was 0.62 %ID/g. The tissue uptake at 24 h ([1]; femur uptake (AV)) was 0.32 %ID/g, the tissue uptake at 48 h ([1]; femur uptake (AV)) was 0.44 %ID/g and the tissue uptake at 72 h ([1]; femur uptake (AV)) was 0.32 %ID/g. It also gave a tissue uptake at 120 h ([1]; femur uptake (AV)) of 0.43 %ID/g, a tissue uptake at 1 h ([1]; heart uptake (AV)) of 2.03 %ID/g and a tissue uptake at 4 h ([1]; heart uptake (AV)) of 1.63 %ID/g. The tissue uptake at 24 h ([1]; heart uptake (AV)) was 0.34 %ID/g, the tissue uptake at 48 h ([1]; heart uptake (AV)) was 0.22 %ID/g and the tissue uptake at 72 h ([1]; heart uptake (AV)) was 0.15 %ID/g. It also gave a tissue uptake at 120 h ([1]; heart uptake (AV)) of 0.23 %ID/g, a tissue uptake at 1 h ([1]; intestine uptake (AV)) of 0.6 %ID/g and a tissue uptake at 4 h ([1]; intestine uptake (AV)) of 0.54 %ID/g. It also gave a tissue uptake at 24 h ([1]; intestine uptake (AV)) of 0.81 %ID/g, a tissue uptake at 48 h ([1]; intestine uptake (AV)) of 0.1 %ID/g and a tissue uptake at 72 h ([1]; intestine uptake (AV)) of 0.12 %ID/g. For the same molecule, the tissue uptake at 120 h ([1]; intestine uptake (AV)) was 0.06 %ID/g, the tissue uptake at 1 h ([1]; kidneys uptake (AV)) was 29.5 %ID/g and the tissue uptake at 4 h ([1]; kidneys uptake (AV)) was 67.9 %ID/g. It also gave a tissue uptake at 24 h ([1]; kidneys uptake (AV)) of 33.1 %ID/g, a tissue uptake at 48 h ([1]; kidneys uptake (AV)) of 15.7 %ID/g and a tissue uptake at 72 h ([1]; kidneys uptake (AV)) of 9.59 %ID/g. The tissue uptake at 120 h ([1]; kidneys uptake (AV)) was 8.82 ± 4.4 %ID/g, the tissue uptake at 1 h ([1]; liver uptake (AV)) was 1.44 %ID/g and the tissue uptake at 4 h ([1]; liver uptake (AV)) was 1.43 %ID/g. The tissue uptake at 24 h ([1]; liver uptake (AV)) was 1.08 %ID/g, the tissue uptake at 48 h ([1]; liver uptake (AV)) was 1.19 %ID/g and the tissue uptake at 72 h ([1]; liver uptake (AV)) was 1.08 %ID/g. The tissue uptake at 120 h ([1]; liver uptake (AV)) was 1.27 %ID/g, the tissue uptake at 1 h ([1]; lung uptake (AV)) was 6.27 %ID/g and the tissue uptake at 4 h ([1]; lung uptake (AV)) was 4.99 %ID/g. For the same molecule, the tissue uptake at 24 h ([1]; lung uptake (AV)) was 2.19 %ID/g, the tissue uptake at 48 h ([1]; lung uptake (AV)) was 1.77 %ID/g and the tissue uptake at 72 h ([1]; lung uptake (AV)) was 1.47 %ID/g. For the same molecule, the tissue uptake at 120 h ([1]; lung uptake (AV)) was 1.73 %ID/g, the tissue uptake at 1 h ([1]; muscle uptake (AV)) was 0.53 %ID/g and the tissue uptake at 4 h ([1]; muscle uptake (AV)) was 0.51 %ID/g. The tissue uptake at 24 h ([1]; muscle uptake (AV)) was 0.14 %ID/g, the tissue uptake at 48 h ([1]; muscle uptake (AV)) was 0.07 %ID/g and the tissue uptake at 72 h ([1]; muscle uptake (AV)) was 0.08 %ID/g. The tissue uptake at 120 h ([1]; muscle uptake (AV)) was 0.12 %ID/g, the tissue uptake at 1 h ([1]; pancreas uptake (AV)) was 0.57 %ID/g and the tissue uptake at 4 h ([1]; pancreas uptake (AV)) was 0.57 %ID/g. The tissue uptake at 24 h ([1]; pancreas uptake (AV)) was 0.26 %ID/g, the tissue uptake at 48 h ([1]; pancreas uptake (AV)) was 0.1 %ID/g and the tissue uptake at 72 h ([1]; pancreas uptake (AV)) was 0.06 %ID/g. For the same molecule, the tissue uptake at 120 h ([1]; pancreas uptake (AV)) was 0.07 %ID/g, the tissue uptake at 1 h ([1]; spleen uptake (AV)) was 7.24 %ID/g and the tissue uptake at 4 h ([1]; spleen uptake (AV)) was 3.4 %ID/g. The tissue uptake at 24 h ([1]; spleen uptake (AV)) was 1.24 %ID/g, the tissue uptake at 48 h ([1]; spleen uptake (AV)) was 1.31 %ID/g and the tissue uptake at 72 h ([1]; spleen uptake (AV)) was 1.12 %ID/g. The tissue uptake at 120 h ([1]; spleen uptake (AV)) was 1.43 %ID/g, the tissue uptake at 1 h ([1]; stomach uptake (AV)) was 0.83 %ID/g and the tissue uptake at 4 h ([1]; stomach uptake (AV)) was 0.58 %ID/g. The tissue uptake at 24 h ([1]; stomach uptake (AV)) was 0.39 %ID/g, the tissue uptake at 48 h ([1]; stomach uptake (AV)) was 0.17 %ID/g and the tissue uptake at 72 h ([1]; stomach uptake (AV)) was 0.1 %ID/g. It also gave a tissue uptake at 120 h ([1]; stomach uptake (AV)) of 0.11 %ID/g, a tissue uptake at 1 h ([1]; tumor uptake (AV)) of 5.96 %ID/g and a tissue uptake at 4 h ([1]; tumor uptake (AV)) of 18 %ID/g. The tissue uptake at 24 h ([1]; tumor uptake (AV)) was 29.5 %ID/g, the tissue uptake at 48 h ([1]; tumor uptake (AV)) was 36.5 %ID/g and the tissue uptake at 72 h ([1]; tumor uptake (AV)) was 38.7 %ID/g. The tissue uptake at 120 h ([1]; tumor uptake (AV)) was 46 %ID/g, the tissue uptake at 128 h ([1]; tumor uptake (highest accumulation), 128 h p.i.) was 46 ± 7.77 %ID/g and the AUCTu-to-AUCBl ([2]; mouse, in vivo) was 26. The AUCTu-to-AUCKi ([2]; mouse, in vivo) was 1.5, the AUCTu-to-AUCLi ([2]; mouse, in vivo) was 29 and the “blood clearance: duration of excretion” value ([2]; mouse, in vivo) was 24 h. For the same molecule, the “maximal tumor uptake compared to counterpart without dedicated albumin binder” value ([2]; mouse, in vivo) was “approximately four times higher”, the “AUC Blood” value [2, 3] was 132 ± 7.2 %ID/g.h and the “AUC Kidneys” value [2, 3] was 2269 ± 288 %ID/g.h. The “AUC Liver” value [2, 3] was 119 ± 4.6 %ID/g.h and the “AUC Tumor” value [2, 3] was 3494 ± 194 %ID/g.h.
